Results from patent publication US20250002610A1 (Genmab, published 2025).
Positions count from the first letter of the chain named.

B1: BisG1-FAPα-FERL/DR4-FERR (bispecific antibody, human IgG1, kappa, lambda)
heavy 1: EVQLLESGGGLVQPGGSPRLSCEASGFTFSSYALSWVRQAPGKGLEWVSAISGSGGGRYYADSVKGRFTISRDNSKNTLFLQMNSLRAEDTAVYYCAKEGYSSSGTYWDHWGQGTLVTVSSASTKGPSVFPLAPSSKSTSGGTAALGCLVKDYFPEPVTVSWNSGALTSGVHTFPAVLQSSGLYSLSSVVTVPSSSLGTQTYICNVNHKPSNTKVDKRVEPKSCDKTHTCPPCPAPEFERGPSVFLFPPKPKDTLMISRTPEVTCVVVDVSHEDPEVKFNWYVDGVEVHNAKTKPREEQYNSTYRVVSVLTVLHQDWLNGKEYKCKVSNKALPAPIEKTISKAKGQPREPQVYTLPPSREEMTKNQVSLTCLVKGFYPSDIAVEWESNGQPENNYKTTPPVLDSDGSFLLYSKLTVDKSRWQQGNVFSCSVMHEALHNHYTQKSLSLSPG
light 1: AIQMTQSPSSVSASVGDRVTITCRASQGVSSWLAWYQQKPGRAPKLLIYVASTLQSGVPSRFSGSGSGTDFTLTINSLQPEDFATYYCQQANSFPPTFGQGTRLEMKRTVAAPSVFIFPPSDEQLKSGTASVVCLLNNFYPREAKVQWKVDNALQSGNSQESVTEQDSKDSTYSLSSTLTLSKADYEKHKVYACEVTHQGLSSPVTKSFNRGEC
heavy 2: QVQLQESGPGLVKPSGTLSLTCAVSGGSISSYSWWSWIRQPPGKGLEWIGELYHSGSTNYNPSLKSRVTISVDKSKNQFSLKLRSVTAADTAVYYCVRGVATIDYWGQGTLVTVSSASTKGPSVFPLAPSSKSTSGGTAALGCLVKDYFPEPVTVSWNSGALTSGVHTFPAVLQSSGLYSLSSVVTVPSSSLGTQTYICNVNHKPSNTKVDKRVEPKSCDKTHTCPPCPAPEFERGPSVFLFPPKPKDTLMISRTPEVTCVVVDVSHEDPEVKFNWYVDGVEVHNAKTKPREEQYNSTYRVVSVLTVLHQDWLNGKEYKCKVSNKALPAPIEKTISKAKGQPREPQVYTLPPSREEMTKNQVSLTCLVKGFYPSDIAVEWESNGQPENNYKTTPPVLDSDGSFFLYSRLTVDKSRWQQGNVFSCSVMHEALHNHYTQKSLSLSPG
light 2: QSALTQPPSASGSPGQSVTISCTGTSSDVGGYNFVSWYQQDPGKAPKLLIYEVTKRPSGVPDRFSGSKSGNTASLTVSGLQAEDEADYYCSSYAGSNNVMFGGGTKLTVLGQPKAAPSVTLFPPSSEELQANKATLVCLISDFYPGAVTVAWKADSSPVKAGVETTTPSKQSNNKYAASSYLSLTPEQWKSHRSYSCQVTHEGSTVEKTVAPTECS
notes: Human IgG1 bispecific made by controlled Fab-arm exchange of IgG1-FAPα-FERL and IgG1-DR4-FERR; monovalent for FAPα and for DR4; also called GEN1057
B2: BisG1-FAPα-FERL/b12-FERR (bispecific antibody, human IgG1, kappa)
heavy 1: B1 heavy 1
light 1: B1 light 1
heavy 2: QVQLVQSGAEVKKPGASVKVSCQASGYRFSNFVIHWVRQAPGQRFEWMGWINPYNGNKEFSAKFQDRVTFTADTSANTAYMELRSLRSADTAVYYCARVGPYSWDDSPQDNYYMDVWGKGTTVIVSSASTKGPSVFPLAPSSKSTSGGTAALGCLVKDYFPEPVTVSWNSGALTSGVHTFPAVLQSSGLYSLSSVVTVPSSSLGTQTYICNVNHKPSNTKVDKRVEPKSCDKTHTCPPCPAPEFERGPSVFLFPPKPKDTLMISRTPEVTCVVVDVSHEDPEVKFNWYVDGVEVHNAKTKPREEQYNSTYRVVSVLTVLHQDWLNGKEYKCKVSNKALPAPIEKTISKAKGQPREPQVYTLPPSREEMTKNQVSLTCLVKGFYPSDIAVEWESNGQPENNYKTTPPVLDSDGSFFLYSRLTVDKSRWQQGNVFSCSVMHEALHNHYTQKSLSLSPG
light 2: EIVLTQSPGTLSLSPGERATFSCRSSHSIRSRRVAWYQHKPGQAPRLVIHGVSNRASGISDRFSGSGSGTDFTLTITRVEPEDFALYYCQVYGASSYTFGQGTKLERKRTVAAPSVFIFPPSDEQLKSGTASVVCLLNNFYPREAKVQWKVDNALQSGNSQESVTEQDSKDSTYSLSSTLTLSKADYEKHKVYACEVTHQGLSSPVTKSFNRGEC
B3: IgG1-DR4-FERR (antibody, V domains shown)
VH: QVQLQESGPGLVKPSGTLSLTCAVSGGSISSYSWWSWIRQPPGKGLEWIGELYHSGSTNYNPSLKSRVTISVDKSKNQFSLKLRSVTAADTAVYYCVRGVATIDYWGQGTLVTVSS
VL: QSALTQPPSASGSPGQSVTISCTGTSSDVGGYNFVSWYQQDPGKAPKLLIYEVTKRPSGVPDRFSGSKSGNTASLTVSGLQAEDEADYYCSSYAGSNNVMFGGGTKLTVLG
notes: Bivalent monoclonal IgG1 lambda
B4: BisG1-b12-FERL/DR4-FERR (bispecific antibody, human IgG1, kappa, lambda)
heavy 1: B2 heavy 2 with F415L, R419K
light 1: B2 light 2
heavy 2: B1 heavy 2
light 2: B1 light 2
notes: Fab-arm exchange of IgG1-b12-FERL and IgG1-DR4-FERR; also called bsIgG1-ctrl-FERLxDR4-FERR

What was measured:
[1] = target: T1, human FAPα (Fibroblast activation protein alpha), cell surface expressed (human, UniProt Q12884 1-760); assay: flow cytometry, CAFs, n = 2
T1 construct: Endogenous on human lung fibroblasts and CAFs
T1 sequence: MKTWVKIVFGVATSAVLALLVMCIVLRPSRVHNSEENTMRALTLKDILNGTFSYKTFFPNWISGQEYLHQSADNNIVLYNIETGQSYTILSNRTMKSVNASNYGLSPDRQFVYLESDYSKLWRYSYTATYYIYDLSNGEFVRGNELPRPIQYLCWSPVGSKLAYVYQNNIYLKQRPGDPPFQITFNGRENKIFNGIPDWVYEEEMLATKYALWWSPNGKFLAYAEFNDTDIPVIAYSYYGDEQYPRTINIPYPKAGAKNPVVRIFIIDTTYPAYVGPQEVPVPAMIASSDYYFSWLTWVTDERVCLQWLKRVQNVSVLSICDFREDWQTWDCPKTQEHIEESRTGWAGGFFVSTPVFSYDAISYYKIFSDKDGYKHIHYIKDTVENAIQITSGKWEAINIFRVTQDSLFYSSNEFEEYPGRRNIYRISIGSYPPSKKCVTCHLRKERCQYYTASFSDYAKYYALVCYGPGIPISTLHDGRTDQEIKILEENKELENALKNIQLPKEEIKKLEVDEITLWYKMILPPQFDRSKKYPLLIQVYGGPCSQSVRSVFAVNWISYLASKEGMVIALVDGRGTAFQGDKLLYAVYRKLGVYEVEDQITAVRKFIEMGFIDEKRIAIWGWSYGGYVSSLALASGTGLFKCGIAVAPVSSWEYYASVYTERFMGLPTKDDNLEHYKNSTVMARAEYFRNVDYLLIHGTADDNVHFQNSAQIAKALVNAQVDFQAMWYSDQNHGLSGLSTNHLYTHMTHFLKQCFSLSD
Description: (§1) Binding of bispecific or monoclonal antibodies carrying the anti-FAPα arm derived from IgG1-FAPα-FERL (BisG1-FAPα-FERL/DR4-FERR, BisG1-FAPα-FERL/b12-FERR, and IgG1-FAPα-FERL) to cell surface expressed human FAPα was analyzed by flow cytometry using human lung fibroblasts and CAFs, which endogenously express FAPα. BisG1-b12-FERL/b12-FERR was used as negative control.
(§2) Human lung fibroblasts and CAFs (50,000 cells/well) were seeded in 96-Well round bottom plates (Greiner Bio-one, Cat #650101). Antibody dilutions were prepared using fluorescence-activated cell sorting (FACS) buffer, consisting of phosphate buffer saline (PBS, Lonza, Cat #BE17-517Q)+1% Bovine Serum Albumin (BSA, Roche, Cat #10735086001)+0.02% Sodium Azide (Bio-World, Cat #41920044-3). Plates were centrifuged, supernatant was removed, cells were resuspended in 50 μL of human Fc Block (BD, Cat #564220, diluted 1:100 in FACS buffer) and 50 μL of viability stain TO-PRO-3 Iodide (Thermo Fisher, Cat #T3605, diluted 1: 25,000 in FACS buffer), and incubated for 15 min at 4° C. Plates were washed three times with FACS buffer. […] Antibody binding to viable cells (TO-PRO-3 negative) was analyzed by flow cytometry on a FACSCelesta™ (BD biosciences) and data were processed using FlowJo_v10.8.1 (FlowJo LLC). Geomean fluorescence intensity, gMFI, was determined and visualized using GraphPad Prism.

[2] = target: T1, human FAPα (Fibroblast activation …); assay: flow cytometry, CAFs, n = 3
Description: as §1, §2

[3] = target: T2, human DR4 (Death Receptor 4), cell surface expressed on human tumor cell lines (human, UniProt O00220 24-468); assay: flow cytometry, HCT-15 cells, average ± SEM
T2 construct: also called TNFRSF10A; TRAIL-R1
T2 sequence: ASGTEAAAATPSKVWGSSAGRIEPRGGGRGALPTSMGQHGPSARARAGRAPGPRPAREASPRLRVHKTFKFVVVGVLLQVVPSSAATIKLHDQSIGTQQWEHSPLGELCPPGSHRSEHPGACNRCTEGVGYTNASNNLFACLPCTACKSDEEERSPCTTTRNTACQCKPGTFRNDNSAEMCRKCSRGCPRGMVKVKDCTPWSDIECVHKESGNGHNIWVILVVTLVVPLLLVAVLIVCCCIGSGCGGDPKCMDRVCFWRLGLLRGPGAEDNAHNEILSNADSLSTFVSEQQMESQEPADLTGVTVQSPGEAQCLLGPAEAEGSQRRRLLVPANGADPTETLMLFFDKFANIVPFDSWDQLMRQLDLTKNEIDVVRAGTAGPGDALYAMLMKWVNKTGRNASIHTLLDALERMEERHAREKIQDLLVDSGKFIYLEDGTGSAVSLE

[4] = target: human DR4 with death domain deletion on ExpiCHO-S cells (human); assay: flow cytometry, ExpiCHO-S cells expressing human DR4, n = 2
Description: Binding of BisG1-FAPα-FERL/DR4-FERR, BisG1-DR4-FEAL/b12-FEAR and IgG1-DR4-FERR to DR4 of various species commonly used for nonclinical toxicology studies was assessed by flow cytometry using ExpiCHO-S cells transiently expressing DR4 from different animal species. In contrast to other species, rodents only express one DR which has highest homology with human DR5. Therefore, ExpiCHO-S cells transiently expressing rat and mouse DR protein were used instead. All DR constructs lack the intracellular DD to avoid apoptosis of transfected cells upon DR(4) activation. IgG1-b12 was used as negative control.

Row | Binder | EC50 [1] [mg/L] | EC50 [2] [mg/L] | EC50 [3] [mg/L] | EC50 [4] [mg/L]
1 | B1 | 0.232 | 0.211 | 0.65 | 0.38
2 | B2 | 0.231 | 0.218 |  | 
3 | B3 |  |  |  | 0.06
4 | B4 |  |  | 0.56 | 
